Consider 1 substance from publication PMC4046932.

The test has as its target Neisseria gonorrhoeae MtrD inner membrane multidrug efflux pump (Neisseria gonorrhoeae) (UniProt Q51073). Nature of the test: crystal structure; sitting-drop vapor diffusion at room temperature; 20 mg/ml MtrD in 20 mM Na-HEPES pH 7.5, 0.05% Cymal-6; reservoir 30% PEG 400, 0.1 M Na-Bicine pH 8.5, 0.1 M NH4Cl, 0.05 M BaCl2, 9% glycerol; space group R32, one protomer per asymmetric unit; 3.53 Å.

As a reminder, the stoichiometry N is a count of units in the complex or per binding partner. In turn, “Neisseria gonorrhoeae MtrD inner membrane multidrug efflux pump (from UniProt Q51073 1-1067) (natural protein)” displayed a stoichiometry N of 3.
